Assay results as given in patent US20250346660A1 (PARAGON THERAPEUTICS, published 2025).

T1: Recombinant Human IL-23 (human, UniProt Q9NPF7 20-189; P29460 23-328)
T1 sequence (looked up) 1: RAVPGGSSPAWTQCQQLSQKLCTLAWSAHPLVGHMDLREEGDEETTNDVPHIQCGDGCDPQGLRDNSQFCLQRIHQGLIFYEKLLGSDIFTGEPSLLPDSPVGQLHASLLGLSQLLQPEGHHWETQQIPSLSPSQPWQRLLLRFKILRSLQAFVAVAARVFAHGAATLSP
T1 sequence (looked up) 2: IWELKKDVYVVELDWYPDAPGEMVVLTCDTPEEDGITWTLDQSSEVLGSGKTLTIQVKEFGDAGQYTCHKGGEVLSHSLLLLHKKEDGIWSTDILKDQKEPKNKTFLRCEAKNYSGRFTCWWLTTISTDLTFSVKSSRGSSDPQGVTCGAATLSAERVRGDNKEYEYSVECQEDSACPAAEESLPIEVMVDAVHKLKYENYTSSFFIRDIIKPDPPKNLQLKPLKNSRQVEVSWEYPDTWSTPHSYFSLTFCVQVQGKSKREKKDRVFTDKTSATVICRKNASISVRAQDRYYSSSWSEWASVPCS


Columns and labels:
[1] = target: T1, Recombinant Human IL-23; assay: cell-based or functional assay
[2] = target: T1, Recombinant Human IL-23; assay: cell-based or functional assay; remark: listed apart in the source
[3] = target: T1, Recombinant Human IL-23; assay: SPR (Biacore 8K), mAb captured on anti-human IgG, human IL-23 as analyte, 25 C, 1:1 model; below the limit of detection
Protocol: (§1) Reference Antibody 1 was used as a comparator. […] Anti-IL23 mAb constructs (diluted to 2 μg/mL) were captured onto flow cell 2 (active) for 60 sec at a flow rate of 10 μL/min. Recombinant Human IL-23 was prepared at concentrations of 0, 1.23, 3.7, 11.11, 33.33, 100 nM and injected over flow cell 1 (reference) and flow cell 2 (active) for 180 sec at a flow rate of 50 μL/min. Samples were injected in a multi-cycle manner over freshly captured mAb, by regenerating the capture surfaces with injection of 10 mM glycine, pH 1.5 for 30 sec at a flow rate of 30 μL/min. A 1:1 kinetic binding model was utilized to determine the apparent association (kₐ) and dissociation […] rate constants. Their ratio provides the apparent equilibrium dissociation constant or affinity constant ([…]).

[4] = target: T1, Recombinant Human IL-23; assay: SPR (Biacore 8K), mAb captured on anti-human IgG, human IL-23 as analyte, 25 C, 1:1 model
Protocol: as §1

[5] = target: T1, Recombinant Human IL-23; assay: SPR (Biacore 8K), mAb captured on goat anti-human IgG CM5 chip, human IL-23 as analyte, 25 C, 1:1 model
Protocol: as §1

[6] = target: T1, Recombinant Human IL-23; assay: cell-based or functional assay; remark: listed apart in the source

| Relative IC50, inhibition of IL-23-induced release of IL-17 from human PBMCs [1] | Relative IC50, inhibition of IL-23-induced activation of STAT3 (luciferase reporter, HEK 293F IL-23R+/IL-12Rb1+ cells) [2] | koff [3] [s⁻¹] | kon [4] [M⁻¹ s⁻¹] | Kd [5] [pM] | Relative IC50, inhibition of IL-23-induced phosphorylation of STAT3 in DB cells (pSTAT3 sandwich ELISA) [6] | Binder |
| --- | --- | --- | --- | --- | --- | --- |
| 0.79 relative to Reference Antibody 1 | 0.76 relative to Reference Antibody 1 | < 1e-06 | 210000 | – | – | IL-23 antibody clone 202 (antibody, human IgG1, kappa, L234A L235A, V domains shown, Full antibody format) VH: EVQLLESGGGLVQPGGSLRLSCAASGYTFTDQTIHWVRQAPGKGLEWIGYIYPRDDSPKYNENFKGRATLSADKSKNTAYLQMNSLRAEDTAVYYCAIPDRSGYAWFIYWGQGTTVTVSS VL: EIVMTQSPATLSVSPGERATLSCKASRDVAIAVAWYQQKPGQAPRLLLYWASTRHTGIPARFSGSGSRTEFTLTISSLQSEDFAVYYCHQYSSYPFTFGGGTKVEIKR |
| 0.78 relative to Reference Antibody 1 | 0.66 relative to Reference Antibody 1 | < 1e-06 | 271000 | < 6 | – | IL-23 antibody clone 203 (antibody, human IgG1, kappa, L234A L235A, V domains shown, Full antibody format) VH: EVQLLESGGGLVQPGGSLRLSCAASGYTFTDQTIHWVRQAPGKGLEWIGYIYPRDDSPKYNENFKGRATLSADKSKNTAYLQMNSLRAEDTAVYYCAIPDRSGYAWFIYWGQGTTVTVSS VL: EIVMTQSPATLSVSPGERATLSCKASRDVAIAVAWYQQKPGQAPRLLLFWASTRHTGIPARFSGSGSRTEFTLTISSLQSEDFAVYYCHQYSSYPFTFGGGTKVEIKR |
| 1 relative to Reference Antibody 1 | 1 relative to Reference Antibody 1 | < 1e-06 | 167000 | – | 1 relative to Reference Antibody 1 | Reference Antibody 1 (antibody, human IgG1, kappa, L234A L235A, V domains shown, also called anti-human IL-23p19 antibody; parental antibody) VH: QVQLVQSGAEVKKPGSSVKVSCKASGYTFTDQTIHWMRQAPGQGLEWIGYIYPRDDSPKYNENFKGKVTITADKSTSTAYMELSSLRSEDTAVYYCAIPDRSGYAWFIYWGQGTLVTVSS VL: DIQMTQSPSSLSASVGDRVTITCKASRDVAIAVAWYQQKPGKVPKLLIYWASTRHTGVPSRFSGSGSRTDFTLTISSLQPEDVADYFCHQYSSYPFTFGSGTKLEIKR |
| 0.67 relative to Reference Antibody 1 | 0.57 relative to Reference Antibody 1 | < 1e-06 | 187000 | – | 0.51 relative to Reference Antibody 1 | IL-23 antibody clone 107 (antibody, human IgG1, kappa, L234A L235A, V domains shown) VH: QVQLVQSGAEVKKPGSSVKVSCKASGYTFTAQTIHWMRQAPGQGLEWIGYIYPRDDTPKYNPNFKGKVTITADKSTSTAYMELSSLRSEDTAVYYCAIPDRSGYAWFDYWGQGTLVTVSS VL: DIQMTQSPSSLSASVGDRVTITCKASRDVAIAVAWYQQKPGKVPKLLIYWASTRHTGVPSRFSGSGSRTDFTLTISSLQPEDVADYFCHQYSSYPFTFGSGTKLEIKR |
